Measurements: the supplement of paper PMC9732359
± gives the uncertainty stated by the source.

Assay: protein stability index of a GFP-peptide fusion (yeast GPS) (PSI 1-4); higher = more stable; sorted into four equal gates, so the index is relative within each strain
How it was run: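 Plasmids in a pooled yeast library fused tiled 17-residue yeast protein peptides downstream of GFP and also expressed Cherry. Mid-log cultures grown without leucine were sorted into four equal gates by GFP/Cherry fluorescence ratio. Each gate's plasmids were PCR-amplified and Illumina-sequenced, and reads were matched to strains by barcodes. The protein stability index is derived by multiplying each gate's read frequency by its gate number and summing the results.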

| Sequence | protein stability index (doa10∆) | protein stability index (pdr5∆) | protein stability index (san1∆) | protein stability index (ubr1∆) |
| --- | --- | --- | --- | --- |
| DNATLTELVDKANIFQV [SSN2] | 3.09 ± 0.15 | 3.56 ± 0.12 | 3.21 ± 0.085 | 3.11 ± 0.11 |
| NRYAYVLSSLMFANMKV [LRP1] | 2.47 ± 0.064 | 2.25 ± 0.058 | 2.08 ± 0.068 | 3.01 ± 0.047 |
| NSILSVRDPWSIDFRTY [SRB2] | 2.71 ± 0.1 | 2.68 ± 0.14 | 2.48 ± 0.22 | 2.98 ± 0.1 |
| FDKIIKIREDHINKIPS [SRB8] | 2.67 ± 0.12 | 2.95 ± 0.066 | 2.96 ± 0.06 | 2.81 ± 0.062 |
| NLLKFITSNHKSSVPGS [RPN3] | 2.55 ± 0.11 | 2.77 ± 0.1 | 2.07 ± 0.067 | 2.41 ± 0.087 |
| LATPVQFELLSRRWRQR [BRR2] | 1.79 ± 0.072 | 1.87 ± 0.054 | 1.81 ± 0.072 | 2.17 ± 0.051 |
| NDQVEKDAEDETSSDGS [RPN1] | 2.63 ± 0.15 | 2.42 ± 0.096 | 2.04 ± 0.17 | 2.59 ± 0.13 |
| SSNIAGTNPLSSDGAYT [SSN2] | 3.04 ± 0.13 | 2.73 ± 0.17 | 3.03 ± 0.062 | 3.33 ± 0.12 |
| FKTYRNETIIDNFSPHQ [SMC3] | 1.97 ± 0.17 | 1.42 ± 0.18 | 2.76 ± 0.21 |  |
| FKYLLGVTDLFRHFIGI [ISW2] | 2.17 ± 0.056 | 1.35 ± 0.048 | 1.25 ± 0.12 | 1.3 ± 0.071 |
| VNCLELLINTNFNKFFK [PCI8] | 1.77 ± 0.045 | 1.88 ± 0.048 | 1.96 ± 0.065 | 1.99 ± 0.064 |
| KCIKYSEKLITKYFEPT [ECM29] | 2.63 ± 0.12 | 3.03 ± 0.13 | 2.84 ± 0.05 | 2.68 ± 0.074 |
| KPGSIDAISQVINIAKA [FAS1] | 2.14 ± 0.052 | 2.87 ± 0.061 | 2.61 ± 0.069 | 2.95 ± 0.033 |
| VLAAQSIGEPATQMTLN [RPO21] | 2.69 ± 0.055 | 3 ± 0.051 | 2.87 ± 0.042 | 2.91 ± 0.048 |
| ELLPHYPFVTNDDIEWM [YJR042W/NUP85] | 2.54 ± 0.13 | 2.93 ± 0.086 | 2.87 ± 0.065 | 2.96 ± 0.073 |
| SVLYQLSTSAFMEIVLE [YML031W/NDC1] | 2.17 ± 0.047 | 2.07 ± 0.055 | 2.07 ± 0.068 | 2.67 ± 0.058 |
| EEEVTDQLEDLREHFKN [QCR6] | 3.14 ± 0.17 | 3.06 ± 0.083 | 3.26 ± 0.09 | 3.29 ± 0.14 |
| QGGNNELGTAVGKLFRV [RPL30] | 2.5 ± 0.12 | 2.83 ± 0.093 | 2.45 ± 0.06 | 2.84 ± 0.076 |
| VDPLKSLEDKILRMGAF [RRI1] | 3.19 ± 0.12 | 3.04 ± 0.14 | 2.88 ± 0.12 | 2.94 ± 0.094 |
| DFLRKATAFNKTRGPFH [RPL16A] | 2.19 ± 0.16 | 2.96 ± 0.2 | 3.04 ± 0.086 | 3.03 ± 0.12 |
| DSHKRIPDMSKNVELGW [SNU114] | 3.06 ± 0.17 | 3.28 ± 0.11 | 2.79 ± 0.13 | 3.41 ± 0.097 |
| NTHYHADYRLILTGTPL [SNF2] | 1.31 ± 0.11 | 1.71 ± 0.097 | 1.39 ± 0.12 | 1.75 ± 0.076 |
| QQIQEQVLKCKESWDPN [YGR119C/NUP57] | 3.3 ± 0.17 |  | 3.33 ± 0.25 | 3.52 ± 0.22 |
| TALALKYLIKYNVFRQH [CSI1] | 1.63 ± 0.06 | 1.8 ± 0.049 | 1.7 ± 0.11 | 1.86 ± 0.053 |
| ATVPSGRPETYIWRYLP [RPO31] | 2.27 ± 0.12 | 1.81 ± 0.092 | 1.16 ± 0.16 | 1.49 ± 0.11 |
| GINSPLSSVALRSDFYI [YJL039C/NUP192] | 2.45 ± 0.15 | 2.78 ± 0.12 | 2.96 ± 0.14 | 3.07 ± 0.15 |

| Sequence | protein stability index (doa10∆) | protein stability index (pdr5∆) | protein stability index (san1∆) | protein stability index (ubr1∆) |
| --- | --- | --- | --- | --- |
| YWQFNGVIALGQFVTLG [RMP1] | 3.23 ± 0.094 | 2.79 ± 0.086 | 2.11 ± 0.086 | 2.91 ± 0.055 |
| FLTGQFASNKKINDESS [YML103C/NUP188] | 2.23 ± 0.05 | 2.23 ± 0.055 | 2.44 ± 0.067 | 2.4 ± 0.052 |
| SYELRNTTTYKSRPDRP [SNF5] | 3.14 ± 0.06 | 3.3 ± 0.071 | 3.1 ± 0.087 | 3.19 ± 0.067 |
| HYGQTLGKKKNVKEEET [RPS8A] | 2.62 ± 0.035 | 2.84 ± 0.035 | 2.38 ± 0.033 | 2.879 ± 0.026 |
| DDENEPKRKRRLPVSED [YOR098C/NUP1] | 3.34 ± 0.1 | 3.28 ± 0.14 | 3.09 ± 0.087 | 3.06 ± 0.072 |
| LQIKRDVLDDLYRKLQR [CSE2] | 2.94 ± 0.072 | 3.11 ± 0.069 | 3.01 ± 0.085 | 3.35 ± 0.055 |
| TSRVFAKIISKAPEQFI [YML103C/NUP188] |  | 3.08 ± 0.14 |  |  |
| SFQKKSNDKVVEWINPS [ISW2] | 3.12 ± 0.069 | 3.39 ± 0.072 | 3.1 ± 0.12 | 3.19 ± 0.088 |
| RQFEVKQLQLAMHNSKA [POP1] | 1.95 ± 0.055 | 2.17 ± 0.059 | 1.77 ± 0.088 | 1.61 ± 0.038 |
| RIRKLTGQNFLTSNISS [REC8] | 1.6 ± 0.056 | 1.79 ± 0.05 | 1.57 ± 0.093 | 1.53 ± 0.053 |
| ERDCVIAYGASQLLLER [RET1] | 1.18 ± 0.058 | 1.28 ± 0.057 | 1.24 ± 0.14 | 1.11 ± 0.051 |
| VGKDTPFTIYDGEAVAK [PRE5] | 2.7 ± 0.075 | 3 ± 0.064 | 3.14 ± 0.088 | 3.15 ± 0.051 |
| FQIPTNLDAAAAGTSQA [RPC10] | 2.44 ± 0.14 | 2.83 ± 0.09 | 2.65 ± 0.095 | 2.66 ± 0.085 |
| AQDEEIHKQIVIEMKRC [UBP6] |  |  | 3.26 ± 0.066 | 3.2 ± 0.14 |
| GLVNPKTVQSMTQRAIQ [SWI3] | 3.25 ± 0.14 | 2.25 ± 0.14 | 2.39 ± 0.14 | 2.05 ± 0.092 |
| IMYQQMLKYRRLFIGDQ [SNF2] | 1.45 ± 0.052 | 1.22 ± 0.04 | 1.3 ± 0.12 | 1.42 ± 0.03 |
| AAHYNRERIKRGAHVEK [PRP8] |  |  | 2.79 ± 0.29 | 2.77 ± 0.19 |
| QQQQQNTNNNDTIATSA [GAL11] | 2.457 ± 0.021 | 2.576 ± 0.02 | 2.478 ± 0.021 | 2.603 ± 0.018 |
| VIFLSSLLTLVGSVTYQ [YJL039C/NUP192] | 1.39 ± 0.14 | 1.21 ± 0.14 | 1.14 ± 0.28 | 1.2 ± 0.13 |
| SKISQMAQNKTHIPQTN [YLR018C/POM34] | 1.83 ± 0.24 | 2.21 ± 0.12 | 2.07 ± 0.1 | 1.95 ± 0.07 |
| LNVAEIITSGRDTREVL [ARP9] | 3.35 ± 0.14 | 3.25 ± 0.089 | 3.44 ± 0.051 | 3.43 ± 0.081 |
| VLTAAGVERLIFYPDEY [PRE3] | 2.78 ± 0.11 | 2.94 ± 0.093 | 2.9 ± 0.074 | 2.95 ± 0.11 |
| WTIPHKKWNDLKNKNFK [SIR2] | 3.22 ± 0.14 | 3.38 ± 0.13 | 3.29 ± 0.11 | 3.23 ± 0.073 |
| QFINLAGYKKLGLKFDD [QCR7] | 2.43 ± 0.2 | 3.61 ± 0.14 |  |  |
| SLPEELKKRYDLSYNFN [YMR129W/POM152] | 2.84 ± 0.1 | 2.67 ± 0.094 | 2.9 ± 0.08 | 2.94 ± 0.091 |
| LIDFEYVNDVAIYNNPT [RRI2] | 2.73 ± 0.062 | 2.92 ± 0.038 | 2.67 ± 0.057 | 2.95 ± 0.049 |
